In paper PMC4840014, “The G-quadruplex-forming aptamer AS1411 potently inhibits HIV-1 attachment to the host cell”:

Legend:
[1] = target: nucleolin (NCL) (human (human recombinant protein), UniProt P19338 1-710); assay: SPR; HEPES-KCl; SPR (Biacore T100, CM5 chip), HEPES-KCl buffer (composition, pH and temperature not given), oligos 15.6-1000 nM, heated 95 C 5 min and cooled to room temperature, 20 uL/min, 120 s contact and dissociation, 1 M KCl regeneration
[2] = target: gp120 envelope glycoprotein (HIV-1 IIIB, UniProt P04578 33-511); assay: SPR; HEPES-KCl; up to 1000 nM; SPR (Biacore T100, CM5 chip), HEPES-KCl buffer (composition, pH and temperature not given), oligos 15.6-1000 nM, heated 95 C 5 min and cooled to room temperature, 20 uL/min, 120 s contact and dissociation, 1 M KCl regeneration; conditions: protein: recombinant

Sequence of nucleolin (NCL) (P19338 whole entry): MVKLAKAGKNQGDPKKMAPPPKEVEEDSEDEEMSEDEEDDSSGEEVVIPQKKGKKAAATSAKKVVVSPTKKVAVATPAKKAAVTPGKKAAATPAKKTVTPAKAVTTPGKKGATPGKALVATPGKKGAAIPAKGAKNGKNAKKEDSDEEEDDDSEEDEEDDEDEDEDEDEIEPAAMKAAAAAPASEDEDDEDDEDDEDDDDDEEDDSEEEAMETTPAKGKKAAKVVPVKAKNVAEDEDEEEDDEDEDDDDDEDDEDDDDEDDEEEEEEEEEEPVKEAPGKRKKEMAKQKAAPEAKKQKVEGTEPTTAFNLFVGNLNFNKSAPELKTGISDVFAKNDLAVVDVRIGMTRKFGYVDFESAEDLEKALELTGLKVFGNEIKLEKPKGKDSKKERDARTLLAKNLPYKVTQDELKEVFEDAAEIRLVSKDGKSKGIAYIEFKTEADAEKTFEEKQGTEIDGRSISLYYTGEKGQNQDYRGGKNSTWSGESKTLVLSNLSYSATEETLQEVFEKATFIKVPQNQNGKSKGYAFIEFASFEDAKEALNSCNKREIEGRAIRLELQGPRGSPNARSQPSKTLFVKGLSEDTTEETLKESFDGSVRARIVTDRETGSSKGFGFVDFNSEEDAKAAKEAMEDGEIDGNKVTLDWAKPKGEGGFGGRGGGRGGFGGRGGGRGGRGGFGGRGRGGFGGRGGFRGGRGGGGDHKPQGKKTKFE

B1: AS1411 (structured_DNA)
DNA: GGTGGTGGTGGTTGTGGTGGTGGTGG
Kd ([1]; G4, described as dimeric): 34.2 nM

B2: LTR-III (structured_DNA)
DNA: GGGAGGCGTGGCCTGGGCGGGACTGGGG
Kd ([1]; G4): 76.3 nM

B3: CRO26 (ssDNA)
DNA: CCTCCTCCTCCTTCTCCTCCTCCTCC
binding result ([2]; C-rich, negative control): no binding

B4: SCRA (ssDNA)
DNA: TTTTTGGAGCGTGTGTGCGCGAGAGCGTGCGCGTGGCGAGCGTGGAGTGGTTTTT
binding result ([2]; G-rich, non-G4): no binding
